The values below come from patent US20250218531A1 (ABSCI, published 2025).

The labels stand for the following.
B1: Trastuzumab HCDR3 variant ARSYAYLYGSWDY (Fab, V domains shown)
VH: EVQLVESGGGLVQPGGSLRLSCAASGFNIKDTYIHWVRQAPGKGLEWVARIYPTNGYTRYADSVKGRFTISADTSKNTAYLQMNSLRAEDTAVYYCARSYAYLYGSWDYWGQGTLVTVSS
VL: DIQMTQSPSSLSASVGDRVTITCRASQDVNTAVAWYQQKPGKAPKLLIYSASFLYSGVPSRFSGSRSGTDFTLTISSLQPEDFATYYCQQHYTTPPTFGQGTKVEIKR
B2: Trastuzumab HCDR3 variant ARWQGRSGYYMDY (Fab, V domains shown)
VH: EVQLVESGGGLVQPGGSLRLSCAASGFNIKDTYIHWVRQAPGKGLEWVARIYPTNGYTRYADSVKGRFTISADTSKNTAYLQMNSLRAEDTAVYYCARWQGRSGYYMDYWGQGTLVTVSS
VL: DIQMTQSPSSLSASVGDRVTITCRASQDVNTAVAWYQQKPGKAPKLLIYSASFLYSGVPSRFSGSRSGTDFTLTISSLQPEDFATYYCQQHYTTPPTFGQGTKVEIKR
B3: Trastuzumab HCDR3 variant ARWGYGYYYSFDY (Fab, V domains shown)
VH: EVQLVESGGGLVQPGGSLRLSCAASGFNIKDTYIHWVRQAPGKGLEWVARIYPTNGYTRYADSVKGRFTISADTSKNTAYLQMNSLRAEDTAVYYCARWGYGYYYSFDYWGQGTLVTVSS
VL: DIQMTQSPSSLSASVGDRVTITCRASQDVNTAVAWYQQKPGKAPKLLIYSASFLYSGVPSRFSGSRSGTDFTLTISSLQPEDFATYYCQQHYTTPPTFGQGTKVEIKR
B4: Trastuzumab HCDR3 variant ARWVSGARYYMDV (Fab, V domains shown)
VH: EVQLVESGGGLVQPGGSLRLSCAASGFNIKDTYIHWVRQAPGKGLEWVARIYPTNGYTRYADSVKGRFTISADTSKNTAYLQMNSLRAEDTAVYYCARWVSGARYYMDVWGQGTLVTVSS
VL: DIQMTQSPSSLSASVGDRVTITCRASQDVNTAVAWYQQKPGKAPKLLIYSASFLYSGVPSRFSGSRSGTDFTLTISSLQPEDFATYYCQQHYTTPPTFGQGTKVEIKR
B5: Trastuzumab HCDR3 variant ARWARGAGYYWDY (Fab, V domains shown)
VH: EVQLVESGGGLVQPGGSLRLSCAASGFNIKDTYIHWVRQAPGKGLEWVARIYPTNGYTRYADSVKGRFTISADTSKNTAYLQMNSLRAEDTAVYYCARWARGAGYYWDYWGQGTLVTVSS
VL: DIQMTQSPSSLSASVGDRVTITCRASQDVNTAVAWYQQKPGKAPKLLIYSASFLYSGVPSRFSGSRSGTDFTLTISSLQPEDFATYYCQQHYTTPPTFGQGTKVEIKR
B6: Trastuzumab HCDR3 variant ARWYGLGSYGLTY (Fab, V domains shown)
VH: EVQLVESGGGLVQPGGSLRLSCAASGFNIKDTYIHWVRQAPGKGLEWVARIYPTNGYTRYADSVKGRFTISADTSKNTAYLQMNSLRAEDTAVYYCARWYGLGSYGLTYWGQGTLVTVSS
VL: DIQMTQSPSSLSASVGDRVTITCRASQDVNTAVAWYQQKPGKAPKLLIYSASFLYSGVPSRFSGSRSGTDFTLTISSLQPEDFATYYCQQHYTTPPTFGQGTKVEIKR
B7: Trastuzumab HCDR3 variant ARTTSSIPSSFDY (Fab, V domains shown)
VH: EVQLVESGGGLVQPGGSLRLSCAASGFNIKDTYIHWVRQAPGKGLEWVARIYPTNGYTRYADSVKGRFTISADTSKNTAYLQMNSLRAEDTAVYYCARTTSSIPSSFDYWGQGTLVTVSS
VL: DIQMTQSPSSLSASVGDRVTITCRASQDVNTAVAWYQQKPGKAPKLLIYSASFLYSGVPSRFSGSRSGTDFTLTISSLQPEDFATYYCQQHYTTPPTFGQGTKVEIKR
B8: Trastuzumab HCDR3 variant ARWLRGLGYYWDY (Fab, V domains shown)
VH: EVQLVESGGGLVQPGGSLRLSCAASGFNIKDTYIHWVRQAPGKGLEWVARIYPTNGYTRYADSVKGRFTISADTSKNTAYLQMNSLRAEDTAVYYCARWLRGLGYYWDYWGQGTLVTVSS
VL: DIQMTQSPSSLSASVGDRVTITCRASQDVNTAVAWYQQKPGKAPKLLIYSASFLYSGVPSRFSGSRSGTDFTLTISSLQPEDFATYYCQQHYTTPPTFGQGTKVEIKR
B9: Trastuzumab HCDR3 variant ARYGDGTYYFFAH (Fab, V domains shown)
VH: EVQLVESGGGLVQPGGSLRLSCAASGFNIKDTYIHWVRQAPGKGLEWVARIYPTNGYTRYADSVKGRFTISADTSKNTAYLQMNSLRAEDTAVYYCARYGDGTYYFFAHWGQGTLVTVSS
VL: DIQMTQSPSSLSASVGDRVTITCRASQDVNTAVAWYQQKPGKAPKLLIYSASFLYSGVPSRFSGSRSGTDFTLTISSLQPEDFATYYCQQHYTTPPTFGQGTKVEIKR
B10: Trastuzumab HCDR3 variant ARWGSYGYYYFDY (Fab, V domains shown)
VH: EVQLVESGGGLVQPGGSLRLSCAASGFNIKDTYIHWVRQAPGKGLEWVARIYPTNGYTRYADSVKGRFTISADTSKNTAYLQMNSLRAEDTAVYYCARWGSYGYYYFDYWGQGTLVTVSS
VL: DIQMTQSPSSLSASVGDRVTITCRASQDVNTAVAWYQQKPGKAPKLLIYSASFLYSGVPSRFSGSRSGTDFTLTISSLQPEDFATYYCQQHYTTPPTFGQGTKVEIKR
B11: Trastuzumab HCDR3 variant ARWWTPANYPFLY (Fab, V domains shown)
VH: EVQLVESGGGLVQPGGSLRLSCAASGFNIKDTYIHWVRQAPGKGLEWVARIYPTNGYTRYADSVKGRFTISADTSKNTAYLQMNSLRAEDTAVYYCARWWTPANYPFLYWGQGTLVTVSS
VL: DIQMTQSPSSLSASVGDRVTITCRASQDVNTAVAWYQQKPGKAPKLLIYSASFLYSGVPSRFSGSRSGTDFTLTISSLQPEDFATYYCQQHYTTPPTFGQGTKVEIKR
B12: Trastuzumab HCDR3 variant ARWEQASVGSFGY (Fab, V domains shown)
VH: EVQLVESGGGLVQPGGSLRLSCAASGFNIKDTYIHWVRQAPGKGLEWVARIYPTNGYTRYADSVKGRFTISADTSKNTAYLQMNSLRAEDTAVYYCARWEQASVGSFGYWGQGTLVTVSS
VL: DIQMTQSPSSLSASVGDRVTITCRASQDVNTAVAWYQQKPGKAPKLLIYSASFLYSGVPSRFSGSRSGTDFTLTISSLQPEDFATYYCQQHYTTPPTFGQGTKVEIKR
B13: Trastuzumab HCDR3 variant ARWGTYTYGYFDY (Fab, V domains shown)
VH: EVQLVESGGGLVQPGGSLRLSCAASGFNIKDTYIHWVRQAPGKGLEWVARIYPTNGYTRYADSVKGRFTISADTSKNTAYLQMNSLRAEDTAVYYCARWGTYTYGYFDYWGQGTLVTVSS
VL: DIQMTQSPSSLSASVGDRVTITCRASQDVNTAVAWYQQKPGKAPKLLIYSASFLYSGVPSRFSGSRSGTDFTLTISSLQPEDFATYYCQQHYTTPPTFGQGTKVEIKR
B14: Trastuzumab HCDR3 variant ARYGDAFIMSFGV (Fab, V domains shown)
VH: EVQLVESGGGLVQPGGSLRLSCAASGFNIKDTYIHWVRQAPGKGLEWVARIYPTNGYTRYADSVKGRFTISADTSKNTAYLQMNSLRAEDTAVYYCARYGDAFIMSFGVWGQGTLVTVSS
VL: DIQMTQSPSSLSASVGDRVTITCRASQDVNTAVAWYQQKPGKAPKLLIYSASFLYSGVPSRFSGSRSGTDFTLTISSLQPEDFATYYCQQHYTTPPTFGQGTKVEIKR
B15: Trastuzumab HCDR3 variant ARYDYYGYYYFDY (Fab, V domains shown)
VH: EVQLVESGGGLVQPGGSLRLSCAASGFNIKDTYIHWVRQAPGKGLEWVARIYPTNGYTRYADSVKGRFTISADTSKNTAYLQMNSLRAEDTAVYYCARYDYYGYYYFDYWGQGTLVTVSS
VL: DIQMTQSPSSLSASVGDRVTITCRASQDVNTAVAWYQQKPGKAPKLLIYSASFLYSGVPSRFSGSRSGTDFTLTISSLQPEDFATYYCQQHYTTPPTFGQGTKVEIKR
B16: Trastuzumab HCDR3 variant ARYGDADFYAFDP (Fab, V domains shown)
VH: EVQLVESGGGLVQPGGSLRLSCAASGFNIKDTYIHWVRQAPGKGLEWVARIYPTNGYTRYADSVKGRFTISADTSKNTAYLQMNSLRAEDTAVYYCARYGDADFYAFDPWGQGTLVTVSS
VL: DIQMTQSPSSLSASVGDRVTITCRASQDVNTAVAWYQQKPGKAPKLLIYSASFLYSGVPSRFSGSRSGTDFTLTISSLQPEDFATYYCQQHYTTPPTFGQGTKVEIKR
B17: Trastuzumab HCDR3 variant ARWWYGGRNYFDI (Fab, V domains shown)
VH: EVQLVESGGGLVQPGGSLRLSCAASGFNIKDTYIHWVRQAPGKGLEWVARIYPTNGYTRYADSVKGRFTISADTSKNTAYLQMNSLRAEDTAVYYCARWWYGGRNYFDIWGQGTLVTVSS
VL: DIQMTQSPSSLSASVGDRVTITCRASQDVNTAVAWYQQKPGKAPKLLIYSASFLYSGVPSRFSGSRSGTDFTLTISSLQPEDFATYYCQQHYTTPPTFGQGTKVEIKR
B18: Trastuzumab HCDR3 variant ARYGARSGYAYEY (Fab, V domains shown)
VH: EVQLVESGGGLVQPGGSLRLSCAASGFNIKDTYIHWVRQAPGKGLEWVARIYPTNGYTRYADSVKGRFTISADTSKNTAYLQMNSLRAEDTAVYYCARYGARSGYAYEYWGQGTLVTVSS
VL: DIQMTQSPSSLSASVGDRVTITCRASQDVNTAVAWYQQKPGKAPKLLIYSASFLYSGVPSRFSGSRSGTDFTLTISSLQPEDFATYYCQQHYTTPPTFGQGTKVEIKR
B19: Trastuzumab HCDR3 variant ARWRYGGAYQFAL (Fab, V domains shown)
VH: EVQLVESGGGLVQPGGSLRLSCAASGFNIKDTYIHWVRQAPGKGLEWVARIYPTNGYTRYADSVKGRFTISADTSKNTAYLQMNSLRAEDTAVYYCARWRYGGAYQFALWGQGTLVTVSS
VL: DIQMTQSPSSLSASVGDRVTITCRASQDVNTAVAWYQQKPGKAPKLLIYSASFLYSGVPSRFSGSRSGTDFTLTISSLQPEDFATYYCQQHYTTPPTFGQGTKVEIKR
B20: Trastuzumab HCDR3 variant ARWEGYGSYEFAY (Fab, V domains shown)
VH: EVQLVESGGGLVQPGGSLRLSCAASGFNIKDTYIHWVRQAPGKGLEWVARIYPTNGYTRYADSVKGRFTISADTSKNTAYLQMNSLRAEDTAVYYCARWEGYGSYEFAYWGQGTLVTVSS
VL: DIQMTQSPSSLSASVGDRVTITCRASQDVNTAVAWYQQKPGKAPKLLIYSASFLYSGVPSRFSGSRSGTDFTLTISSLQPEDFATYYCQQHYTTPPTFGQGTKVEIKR
B21: Trastuzumab HCDR3 variant ARTVVGWYGRFDY (Fab, V domains shown)
VH: EVQLVESGGGLVQPGGSLRLSCAASGFNIKDTYIHWVRQAPGKGLEWVARIYPTNGYTRYADSVKGRFTISADTSKNTAYLQMNSLRAEDTAVYYCARTVVGWYGRFDYWGQGTLVTVSS
VL: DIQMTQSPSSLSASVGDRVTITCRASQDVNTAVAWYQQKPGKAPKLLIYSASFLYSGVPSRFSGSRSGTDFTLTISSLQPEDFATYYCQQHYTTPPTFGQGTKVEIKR
B22: Trastuzumab HCDR3 variant ARWGGFGYYYFDY (Fab, V domains shown)
VH: EVQLVESGGGLVQPGGSLRLSCAASGFNIKDTYIHWVRQAPGKGLEWVARIYPTNGYTRYADSVKGRFTISADTSKNTAYLQMNSLRAEDTAVYYCARWGGFGYYYFDYWGQGTLVTVSS
VL: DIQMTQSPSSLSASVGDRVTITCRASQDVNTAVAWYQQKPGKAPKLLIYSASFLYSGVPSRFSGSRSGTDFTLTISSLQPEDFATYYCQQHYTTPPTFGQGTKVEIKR
B23: Trastuzumab HCDR3 variant ARYGDSYYYYFDY (Fab, V domains shown)
VH: EVQLVESGGGLVQPGGSLRLSCAASGFNIKDTYIHWVRQAPGKGLEWVARIYPTNGYTRYADSVKGRFTISADTSKNTAYLQMNSLRAEDTAVYYCARYGDSYYYYFDYWGQGTLVTVSS
VL: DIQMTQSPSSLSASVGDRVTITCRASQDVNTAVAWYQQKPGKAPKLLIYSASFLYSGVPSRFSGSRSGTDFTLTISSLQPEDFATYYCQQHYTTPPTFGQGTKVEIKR
B24: Trastuzumab HCDR3 variant ARWPPYYWWAFDY (Fab, V domains shown)
VH: EVQLVESGGGLVQPGGSLRLSCAASGFNIKDTYIHWVRQAPGKGLEWVARIYPTNGYTRYADSVKGRFTISADTSKNTAYLQMNSLRAEDTAVYYCARWPPYYWWAFDYWGQGTLVTVSS
VL: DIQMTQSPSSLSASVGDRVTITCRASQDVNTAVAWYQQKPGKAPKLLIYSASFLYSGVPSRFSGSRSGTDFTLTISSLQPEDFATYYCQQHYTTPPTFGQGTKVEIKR
B25: Trastuzumab HCDR3 variant ARWERYGYYVLDV (Fab, V domains shown)
VH: EVQLVESGGGLVQPGGSLRLSCAASGFNIKDTYIHWVRQAPGKGLEWVARIYPTNGYTRYADSVKGRFTISADTSKNTAYLQMNSLRAEDTAVYYCARWERYGYYVLDVWGQGTLVTVSS
VL: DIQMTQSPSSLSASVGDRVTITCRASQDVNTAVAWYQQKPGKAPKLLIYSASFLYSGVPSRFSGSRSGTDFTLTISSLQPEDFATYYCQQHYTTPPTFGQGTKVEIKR
B26: Trastuzumab HCDR3 variant ARYFYDHYYYFDV (Fab, V domains shown)
VH: EVQLVESGGGLVQPGGSLRLSCAASGFNIKDTYIHWVRQAPGKGLEWVARIYPTNGYTRYADSVKGRFTISADTSKNTAYLQMNSLRAEDTAVYYCARYFYDHYYYFDVWGQGTLVTVSS
VL: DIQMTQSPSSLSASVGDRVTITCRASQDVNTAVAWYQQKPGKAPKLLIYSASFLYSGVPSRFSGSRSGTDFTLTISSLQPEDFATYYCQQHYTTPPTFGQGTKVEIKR
B27: Trastuzumab HCDR3 variant ARYGAYSSYYFGY (Fab, V domains shown)
VH: EVQLVESGGGLVQPGGSLRLSCAASGFNIKDTYIHWVRQAPGKGLEWVARIYPTNGYTRYADSVKGRFTISADTSKNTAYLQMNSLRAEDTAVYYCARYGAYSSYYFGYWGQGTLVTVSS
VL: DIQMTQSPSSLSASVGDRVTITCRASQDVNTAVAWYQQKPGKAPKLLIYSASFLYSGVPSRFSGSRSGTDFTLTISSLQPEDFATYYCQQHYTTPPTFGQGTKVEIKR
B28: Trastuzumab HCDR3 variant ARSYFRFTGDFFY (Fab, V domains shown)
VH: EVQLVESGGGLVQPGGSLRLSCAASGFNIKDTYIHWVRQAPGKGLEWVARIYPTNGYTRYADSVKGRFTISADTSKNTAYLQMNSLRAEDTAVYYCARSYFRFTGDFFYWGQGTLVTVSS
VL: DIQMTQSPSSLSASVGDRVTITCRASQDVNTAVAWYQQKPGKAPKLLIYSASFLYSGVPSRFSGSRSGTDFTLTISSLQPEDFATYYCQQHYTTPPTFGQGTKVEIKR
B29: Trastuzumab HCDR3 variant ARWGSEAFYWFDY (Fab, V domains shown)
VH: EVQLVESGGGLVQPGGSLRLSCAASGFNIKDTYIHWVRQAPGKGLEWVARIYPTNGYTRYADSVKGRFTISADTSKNTAYLQMNSLRAEDTAVYYCARWGSEAFYWFDYWGQGTLVTVSS
VL: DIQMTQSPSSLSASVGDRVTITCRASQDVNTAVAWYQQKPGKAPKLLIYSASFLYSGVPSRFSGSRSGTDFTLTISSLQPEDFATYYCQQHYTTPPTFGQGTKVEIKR

This assay concerns the target human epidermal growth factor receptor 2 (HER2) extracellular domain (human, UniProt P04626 23-629). The assay can be described thus: SPR. On the technique in general: SPR reads the build-up and loss of mass on a sensor chip optically.
Take B1: the affinity, expressed as Kd, was 0.102 µM and the “log(KD (M))” value was -6.99 log(M).

For B2, the Kd amounted to 0.0483 µM and the “log(KD (M))” value was -7.32 log(M).

For the molecule B3, the dissociation constant Kd stood at 0.038 µM and the “log(KD (M))” value was -7.42 log(M).

For B4, binding was characterised by a dissociation constant (Kd) of 0.0338 µM and the “log(KD (M))” value was -7.47 log(M).

With B5, the dissociation constant Kd came to 0.0896 µM and the “log(KD (M))” value is -7.05 log(M).

B6: the affinity, expressed as Kd, was 0.223 µM and the “log(KD (M))” value is -6.65 log(M).

Consider B7, for which the Kd amounted to 0.149 µM and the “log(KD (M))” value was -6.83 log(M).

For the molecule B8, the Kd was 0.0401 µM and the “log(KD (M))” value was -7.4 log(M).

With B9, the affinity, expressed as Kd, was 0.0973 µM and the “log(KD (M))” value was -7.01 log(M).

In the case of B10, the Kd stood at 0.0309 µM and the “log(KD (M))” value is -7.51 log(M).

Regarding B11, binding was put at a Kd of 0.133 µM and the “log(KD (M))” value is -6.88 log(M).

B12: the Kd is 0.226 µM and the “log(KD (M))” value was -6.65 log(M).

As for B13, the Kd turned out to be 0.0881 µM and the “log(KD (M))” value was -7.05 log(M).

Consider B14, for which binding was put at a Kd of 0.0674 µM and the “log(KD (M))” value was -7.17 log(M).

For the molecule B15, the Kd was determined as 0.099 µM and the “log(KD (M))” value was -7 log(M).

Consider B16, for which the affinity, expressed as Kd, was 0.0358 µM and the “log(KD (M))” value was -7.45 log(M).

For B17, the Kd was 0.116 µM and the “log(KD (M))” value is -6.94 log(M).

For the molecule B18, binding was put at a Kd of 0.0451 µM and the “log(KD (M))” value was -7.35 log(M).

With B19, the Kd came out at 0.231 µM and the “log(KD (M))” value was -6.64 log(M).

In the case of B20, binding was put at a Kd of 0.0425 µM and the “log(KD (M))” value was -7.37 log(M).

In the case of B21, the Kd was 0.0636 µM and the “log(KD (M))” value is -7.2 log(M).

With B22, the Kd was found to be 0.031 µM and the “log(KD (M))” value is -7.51 log(M).

Consider B23, for which the Kd worked out at 0.0406 µM and the “log(KD (M))” value is -7.39 log(M).

Consider B24, for which binding was put at a Kd of 0.0656 µM and the “log(KD (M))” value is -7.18 log(M).

Take B25: the dissociation constant Kd stood at 0.0279 µM and the “log(KD (M))” value was -7.55 log(M).

On to B26, for which binding was put at a Kd of 0.0297 µM and the “log(KD (M))” value was -7.53 log(M).

As for B27, binding was characterised by a dissociation constant (Kd) of 0.028 µM and the “log(KD (M))” value is -7.55 log(M).

B28: the Kd was 0.135 µM and the “log(KD (M))” value is -6.87 log(M).

Regarding B29, the affinity, expressed as Kd, was 0.0328 µM and the “log(KD (M))” value is -7.48 log(M).

The term Kd denotes the equilibrium constant for the complex coming apart.
